EC50 data for 2 substances are collected here from article PMC10883291.

What all share (assay): FRET or BRET; time-resolved FRET (Cisbio); FcγRs expressed on HEK293 cells (Tb donor cells); IgG-d2 acceptor conjugate displaced by the test antibodies; EC50 by the manufacturer's protocol
One assay has as its target FcγR1 (CD64) (human) (UniProt P12314).
In assay [1] the target is FcγR3A (CD16aF158) (human) (UniProt P08637).
The target in the next assay is FcγR2B (human) (UniProt P31994).
In assay [2] the target is FcγR2A (CD32aH131) (human) (UniProt P12318).
FcγR2A (CD32aH131) (human), sequence (P12318 34-317): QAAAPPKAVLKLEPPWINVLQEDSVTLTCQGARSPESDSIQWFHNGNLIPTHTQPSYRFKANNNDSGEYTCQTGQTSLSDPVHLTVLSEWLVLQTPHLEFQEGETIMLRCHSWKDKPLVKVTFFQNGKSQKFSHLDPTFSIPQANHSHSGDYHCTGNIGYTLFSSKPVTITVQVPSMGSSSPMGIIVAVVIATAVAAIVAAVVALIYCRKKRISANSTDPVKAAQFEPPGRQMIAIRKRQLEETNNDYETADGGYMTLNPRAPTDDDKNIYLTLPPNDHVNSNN
Assay [3] has as its target FcγR2A (CD32aR131) (human).

FcγR1 (CD64) (human), sequence (P12314 16-374): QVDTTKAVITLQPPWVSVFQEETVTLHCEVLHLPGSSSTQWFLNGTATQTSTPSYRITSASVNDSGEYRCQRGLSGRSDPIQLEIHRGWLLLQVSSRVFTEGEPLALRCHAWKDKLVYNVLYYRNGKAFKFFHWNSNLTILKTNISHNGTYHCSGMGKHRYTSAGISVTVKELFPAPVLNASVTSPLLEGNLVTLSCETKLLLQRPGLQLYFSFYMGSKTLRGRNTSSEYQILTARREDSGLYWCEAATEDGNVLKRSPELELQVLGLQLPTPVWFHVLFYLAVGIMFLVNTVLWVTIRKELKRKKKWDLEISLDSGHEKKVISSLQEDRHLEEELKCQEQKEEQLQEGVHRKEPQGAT
FcγR2A (CD32aR131) (human), sequence (P12318 34-317 H167R): as the sequence (P12318 34-317) above, with H134R counted along it
FcγR3A (CD16aF158) (human), sequence (P08637 17-254): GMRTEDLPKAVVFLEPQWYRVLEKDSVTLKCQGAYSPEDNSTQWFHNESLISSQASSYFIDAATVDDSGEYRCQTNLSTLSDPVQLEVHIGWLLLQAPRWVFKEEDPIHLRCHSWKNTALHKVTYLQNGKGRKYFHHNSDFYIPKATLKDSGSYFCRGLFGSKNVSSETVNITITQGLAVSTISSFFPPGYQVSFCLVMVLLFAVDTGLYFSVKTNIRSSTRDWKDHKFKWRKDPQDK
FcγR2B (human), sequence (P31994 43-310): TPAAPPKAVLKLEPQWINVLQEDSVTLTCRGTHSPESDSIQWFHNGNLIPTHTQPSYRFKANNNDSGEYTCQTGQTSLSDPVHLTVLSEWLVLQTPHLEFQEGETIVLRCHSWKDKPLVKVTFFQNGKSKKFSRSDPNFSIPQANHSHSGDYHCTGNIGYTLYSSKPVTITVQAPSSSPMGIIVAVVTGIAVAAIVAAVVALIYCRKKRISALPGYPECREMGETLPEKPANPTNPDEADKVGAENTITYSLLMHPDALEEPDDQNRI

As for BMS-986351 (antibody), the EC50 in the assay with FcγR1 (CD64) (human) was 0.8 nM; in assay [1] it was 1200 nM; with FcγR2B (human) it was 2480 nM; in assay [2], 200 nM.
For Rituximab (antibody), the concentration for a half-maximal effect (EC50) turned out to be 0.8 nM with FcγR1 (CD64) (human), 361 nM in assay [2] and 194 nM in assay [3].
